Entries after “also recorded” stand apart in the source; their conditions may differ.
B1: FGF23: recombinant fibroblast growth factor 23 protein from R&D Systems (protein)
chain: YPDTSPLLGSNWGSLTHLYTATARTSYHLQIHRDGHVDGTPHQTIYSALMITSEDAGSVVITGAMTRRFLCMDLHGNIFGSLHFSPENCKFRQWTLENGYDVYLSQKHHYLVSLGRAKRIFQPGTNPPPFSQFLARRNEVPLLHFYTVRPRRHTRSAEDPPERDPLNVLKPRPRATPVPVSCSRELPSAEEGGPAASDPLGVLRRGRGDARGGAGGADRCRPFPRFV
B2: sKL: recombinant soluble α-klotho ectodomain, mouse aa 35-982 and human aa 34-981, FLAG- or Strep/His-tagged, purified from HEK293 cells (protein)
chain: EPGDGAQTWARFSRPPAPEAAGLFQGTFPDGFLWAVGSAAYQTEGGWQQHGKGASIWDTFTHHPLAPPGDSRNASLPLGAPSPLQPATGDVASDSYNNVFRDTEALRELGVTHYRFSISWARVLPNGSAGVPNREGLRYYRRLLERLRELGVQPVVTLYHWDLPQRLQDAYGGWANRALADHFRDYAELCFRHFGGQVKYWITIDNPYVVAWHGYATGRLAPGIRGSPRLGYLVAHNLLLAHAKVWHLYNTSFRPTQGGQVSIALSSHWINPRRMTDHSIKECQKSLDFVLGWFAKPVFIDGDYPESMKNNLSSILPDFTESEKKFIKGTADFFALCFGPTLSFQLLDPHMKFRQLESPNLRQLLSWIDLEFNHPQIFIVENGWFVSGTTKRDDAKYMYYLKKFIMETLKAIKLDGVDVIGYTAWSLMDGFEWHRGYSIRRGLFYVDFLSQDKMLLPKSSALFYQKLIEKNGFPPLPENQPLEGTFPCDFAWGVVDNYIQVDTTLSQFTDLNVYLWDVHHSKRLIKVDGVVTKKRKSYCVDFAAIQPQIALLQEMHVTHFRFSLDWALILPLGNQSQVNHTILQYYRCMASELVRVNITPVVALWQPMAPNQGLPRLLARQGAWENPYTALAFAEYARLCFQELGHHVKLWITMNEPYTRNMTYSAGHNLLKAHALAWHVYNEKFRHAQNGKISIALQADWIEPACPFSQKDKEVAERVLEFDIGWLAEPIFGSGDYPWVMRDWLNQRNNFLLPYFTEDEKKLIQGTFDFLALSHYTTILVDSEKEDPIKYNDYLEVQEMTDITWLNSPSQVAVVPWGLRKVLNWLKFKYGDLPMYIISNGIDDGLHAEDDQLRVYYMQNYINEALKAHILDGINLCGYFAYSFNDRTAPRFGLYRYAADQFEPKASMKHYRKIIDSNGFPGPETLERFCPEEFTVCTECSFFHTRKS
modifications: left off: small tags and cut ends
notes: recombinant soluble α-klotho ectodomain, mouse aa 35-982 and human aa 34-981, FLAG- or Strep/His-tagged, purified from HEK293 cells

Columns and labels:
[1] = test system: neonatal rat ventricular myocytes; assay: Hypertrophic growth of isolated neonatal rat ventricular myocytes (cell area); format: cell-based
Protocol: Neonatal rat ventricular myocytes (NRVMs) were isolated using a kit according to the manufacturer's protocol (LK003300, Worthington Biochemical Corporation), as done previously.^13,16,17 Briefly, hearts from 1- to 3-day-old Sprague Dawley rats (Envigo) were harvested and minced in calcium- and magnesium-free Hanks balanced salt solution and the tissue was digested with 50 μg/ml of trypsin at 4° C. for 20 to 24 hours. Soybean trypsin inhibitor in Hanks balanced salt solution was added, and the tissue was further digested with collagenase (in Leibovitz L-15 medium) under slow rotation (0.14 g) at 37° C. for 45 minutes. Cells were broken up by triturating the suspension 20× with a standard 10-ml plastic serological pipette. Cells were then filtered through a cell strainer (70 μm, BD Falcon). Cells were incubated at room temperature for 20 minutes and spun at 100 g for 5 minutes. The cell pellet was resuspended in plating medium (DMEM Base [10013CV, Corning], 17% M199 [12350039, Gibco], 15% FBS [26140079, Gibco], I× Pen/Strep [15140122, Gibco]). For cell tracings, NRVMs were grown in 24-well plates on glass coverslips (CLS1760012, Chemglass). Slips were precoated with laminin (23017015, Invitrogen) at 10 μg/ml for 1 hour at 37° C. dissolved in PBS. Laminin was aspirated, and cells and medium were added. Cells were counted by a hemocytometer and plated at 4×10^5 cells per well. […] After 48 hours, maintenance medium was replaced, and after another 48 hours, cells were ready for treatment, giving a total of 72 hours of plating medium and 96 hours of maintenance medium before treatment. […]
The medium was aspirated, and cultured NRVMs were fixed in 2% paraformaldehyde (P-6148, Sigma-Aldrich) and 4% sucrose dissolved in PBS for 5 minutes followed by permeabilization with 1% Triton X-100 dissolved in PBS for 10 minutes. […] The cross-sectional area of myocytes was measured on the basis of α-actinin-positive staining using ImageJ software (v1.53, National Institutes of Health). […]

[2] = test system: isolated adult ventricular cardiac myocytes; conditions: previous studies; cited from earlier work
[3] = Half-life of recombinant sKL in the circulation of rats; format: in vivo, rat; conditions: tail vein injection 100 μg/kg
Protocol: To determine the half-life of recombinant sKL protein in the circulation, rats were injected with the Strep-tagged mouse sKL that was purified as described above. Each group consisted of 3 male Sprague Dawley rats (9 weeks of age and weighing approximately 300 g). For injections and bleeding, rats were anesthetized with 2.5% isoflurane. For injections, a shielded i.v. catheter (BD Insyte Autoguard 0.7×19 mm, catalog no. 381412) was inserted into the lateral tail vein and flushed with 100 μl of isotonic saline (0.9%). One milliliter of purified sKL protein dissolved in isotonic saline (100 μg/kg) or isotonic saline was then injected, and the catheter was flushed again with 100 μl of isotonic saline. For bleeding, a shielded i.v. catheter was inserted into the lateral tail vein. Blood samples (300 μl) were taken after 1, 3, 5, 10, 15, 30, and 60 minutes as well as 3, 6, 12, and 48 hours. For collections from 15 minutes to 48 hours postinjection, a separate i.v. catheter was inserted each time to draw blood. For collections from 1 to 15 minutes post-sKL injection, the same i.v. catheter was used, and to exclude contamination with the previous draw, the catheter was flushed with isotonic saline between each sample. […] Serum was then aliquoted and stored at approximately […] before analysis. For the sKL activity assay, wells were coated with 500 ng of mouse FGF23 in 100 μl of coating buffer (E107, Bethyl Laboratories) at 4° C. overnight. Plates were washed 5× at 350 μl of assay buffer (50 mM Tris, [pH 7.4] 200 mM NaCl, 0.01% Tween 20) on a 50 TS microplate washer (BioTek). Plates were blocked for 1 hour in 200 μl of assay buffer with 0.5% BSA. Plates were washed and incubated with 30 μl per well and 70 μl of assay buffer with 0.5% BSA. Standards were run at noted concentrations by using purified Strep-tagged mouse sKL protein with 30 μl of control serum and 70 μl of assay buffer with 0.5% BSA added to ensure consistency. All samples and standards were run in triplicates. After 1 hour, plates were washed, and 150 ng of Fc-FGFR1c were incubated on plates in 100 μl of assay buffer with 0.5% BSA. After 1 hour, plates were washed and incubated with anti-human Fc-HRP at 1:10,000. Plates were washed as above and 100 μl of TMB substrate (E102, Bethyl Laboratories) was added for 15 to 20 minutes until positive wells developed a dark blue color. Reactions were stopped with ELISA stop solution (E115, Bethyl Laboratories) and analyzed using the Synergy HI plate reader (BioTek) at 450 nm wavelength. Amounts of sKL were calculated by taking the slope of the standard curve and calculating where the sample points fit in.

Row | Molecule | cell area ([1]; FGF23 alone, 48 hours) | FGF23-induced hypertrophy (increase in cell area) ([1]; cotreatment with FGF23 25 ng/ml, 48 hours, sKL 100 ng/ml, anti-FGF23 1 μg/ml) | NRVM area, treatment by itself ([1]; without FGF23, 48 hours) | FGF23-induced calcium mishandling, altered contractility, proarrhythmic calcium release [2] | time postinjection from which sKL could no longer be detected [3] | time post-injection after which sKL levels were reduced by about half ([3]; earlier time points) | half-life in the circulation ([3]; serum, listed as recombinant sKL protein) | serum sKL level at the 15-minute time point ([3]; versus vehicle)
1 | B1 | induced hypertrophic growth; also recorded: increase in cell area; also recorded: stepwise elevation in the cell area | – | – | – | – | – | – | –
2 | B2 | – | FGF23 did not induce hypertrophy; also recorded: blocked this effect | no effect | can be blocked | ≥ 3 h | approximately 10 minutes | approximately 10 minutes | high levels of sKL were detected

Reference: patent publication US20240384250A1, “FIBROBLAST GROWTH FACTOR 23 MODULATING COMPOUNDS” (THE UAB RESEARCH FOUNDATION, priority 2021, published 2024)
